Test results taken from article PMC7126611.

Tested on: His-PTB (polypyrimidine tract-binding protein, pETPTB), P26599-1
Assay: EMSA

GGGCCAGACACUGAUUAUAUGGUUCAUAUGGGUAAUUACCUUCCCUAGGCUAAGGACUAACUGGUAUAUACCAUAAUUAAA [SHFV 3'(+)NCR RNA]
Kd: 7 nM
